Results on 1 substance are retold here after article PMC2885749.

The target in this assay is TolCΔ2–22 (signal sequence-less mature TolC, His-tagged) (E. coli) (UniProt P02930). The assay can be described thus: SDS-PAGE of unheated samples.

One may read the stoichiometry N as a count of units in the complex or per binding partner. “TolCΔ2–22 (signal sequence-less mature TolC, His-tagged) (from UniProt P02930 23-493) (natural protein)” displayed a stoichiometry N of 3.
